{
  "source": "paper PMC8606595",
  "about": "“Chimeric Antigen Receptor T Cells With Modified Interleukin-13 Preferentially Recognize IL13Rα2 and Suppress Malignant Glioma: A Preclinical Study” (Frontiers in Immunology, 2021)",
  "binders": {"B1": {"name": "YYB-103 IL13 (modified IL13.E13K.R66D.S69D.R109K, antigen binding domain of YYB-103) fused with human Fc (Fc fusion)", "chain": "SPGPVPPSTALRKLIEELVNITQNQKAPLCNGSMVWSINLTAGMYCAALESLINVSGCSAIEKTQDMLDGFCPHKVSAGQFSSLHVRDTKIEVAQFVKDLLLHLKKLFKEGQFN", "modifications": "Fused to human Fc (carrier left out; probably dimeric through Fc). Numbering offset +32 is the only one that fits E13, R66, S69 and R109 together. / Amine-coupled to CM5 chip; extracellular domain …"}},
  "biological_target": "Human IL13Rα2 (human, UniProt Q14627 27-380)",
  "sequence (Q14627 27-380)": "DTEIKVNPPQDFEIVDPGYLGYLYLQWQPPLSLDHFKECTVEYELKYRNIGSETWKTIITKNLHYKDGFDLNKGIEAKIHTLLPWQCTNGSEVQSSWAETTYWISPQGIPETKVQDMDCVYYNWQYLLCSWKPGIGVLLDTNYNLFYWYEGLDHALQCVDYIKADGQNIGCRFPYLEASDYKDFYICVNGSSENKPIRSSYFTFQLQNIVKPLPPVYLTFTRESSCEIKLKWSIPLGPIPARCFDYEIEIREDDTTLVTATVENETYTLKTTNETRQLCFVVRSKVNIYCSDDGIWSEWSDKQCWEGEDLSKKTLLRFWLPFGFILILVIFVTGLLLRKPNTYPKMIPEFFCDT",
  "assay": "SPR; Biacore T200; human IL13Rα1 (2,800 RU) or IL13Rα2 (3,100 RU) amine-coupled to CM5 chips in 10 mM sodium acetate pH 4.5; IL13-Fc proteins injected in twofold serial dilutions at constant flow (30 ml/min as printed); association 180 s, dissociation 600 s; regeneration 10 mM glycine pH 2.0; 1:1 fitting model",
  "details": "both partners purified",
  "data": [
    {"binder": "B1", "values": [
      {"measurement": "Kd", "value": 7.4, "unit": "nM"},
      {"measurement": "koff", "value": "1.26e-05", "unit": "s⁻¹"},
      {"measurement": "kon", "value": 1670, "unit": "M⁻¹ s⁻¹"}
    ]}
  ]
}
